Measurements taken from the DeepSol protein solubility set.

Test: soluble on expression in E. coli; label from the status in PepcDB or PDB records

| Sequence | soluble on expression in E. coli |
| --- | --- |
| SPLDRDPAFRVITVTKETGLGLKILGGINRNEGPLVYIHEVIPGGDCYKDGRLKPGDQLVSINKESMIGVSFEEAKSIITRAKLRSESPWEIAFIR | soluble |
| MNYPAEPFRIKSVETVSMISRDERVKKMQEAGYNTFLLNSKDIYIDLLTDSGTNAMSDKQWAGMMIGDEAYAGSENFYHLEKTVKELFGFKHIVPTHQGRGAENLLSQLAIKPGQYVAGNMYFTTTRFHQEKNGATFVDIVRDEAHDASLNLPFKGDIDLNKLATLIKEKGAENIAYICLAVTVNLAGGQPVSMANMRAVHEMASTYGIKIFYDATRCVENAYFIKEQEAGYENVSIKDIVHEMFSYADGCTMSGKKDCLVNIGGFLCMNDEEMFSAAKELVVVYEGMPSYGGLAGRDMEAMAIGLREAMQYEYIEHRVKQVRYLGDKLREAGVPIVEPTGGHAVFLDARRFCPHLTQDQFPAQSLAASIYMETGVRSMERGIVSAGRSKETGENHRPKLETVRLTIPRRVYTYAHMDVVADGIIKLYQHKEDIRGLTFVYEPKQLRFFTARFDFI | soluble |
| MGSDKIHHHHHHMSDTLRRKQAADHAMRHWVHQSRGPVPIGSDAHKQMFCNMLLDTHNPYKPAVIDWPALRPDALRRLTSLPIWDIAVQTEGRASVRVATFASTVRDPLLRAALELDAAEEARHKVVLSKLVQAYGIRLAPEPAYPAPKDAEWAWMVTGFSECIDSFFAFGLFRSAQRSGYFPPELVETFEPVIQEEGRHILFFANWFGWYWRNLSWWRRPWLFARVAAVWAYLIWERIGIARGIDADGVARDANFPANTAATVGNALNPRELIELCLVENARRMAGYDTRLLRPTIVPRLARFALRFIRK | not soluble |
| MGSDKIHHHHHHDLLHESYGQVVSEDYVPKTEEDVSYLVNAAYIPWRETLLQWNGVVRAQELCADQDVLPARDGIGWVDGYIYKRWHQHTWTTEDDGVLQGWERTYNGVNTCNRILSQIEEGVISVDGETKEKLIAELKVLRASYYYILIDLYGNVPIVTDFKDTSLPQQSTRKEVFDFIVKEITENMDLLSETPRGYYYGRFNKWAAHTLLAKMYLNAEVWSGTAQWQKCIDECDIVINYAEKSGEYALENNQKDVFVTHNENSKEIIFALPFDEIYVTGWNDFDFHMYTLAPENQDTYQLTARPWGGVCAVPQFINSFDEDDARLEDNYIQGQQYTYSGEILKRSIDGKPLIYTVDVPSIDQSDVDDGFRWGKFEYATGITNRLSNDWPLLRYADVLMMKAESLMRLGKSGAGALVTQVRERAFKNEPEKAQVTDAELMGGSVYDYGRRDSYKTEHDGGTDIKYGRFLDELGWEFCQEGRRRQDMIRFGIFTTKAWFSHDKSDETKNLYPIPNKVLLTNSNLKQNPGYSK | not soluble |
| MSLFVEALKRQNPALISAALSLWQQGKIAPDSWVIDVDQILENGKRLIETARLYGIELYLMTKQFGRNPWLAEKLLALGYSGIVAVDYKEARVMRRAGLPVAHQGHLVQIPCHQVADAVEQGTDVITVFTLDKAREVSAAAVKAGRIQSVLLKVYSDDDFLYPGQESGFALKVLPEIVAEIQNLPGLHLAGLTHFPCLLWDEAVGKVLPTPNLHTLIQARDQLAKSGIALEQLNAPSATSCTSLPLLAQYGVTHAEPGHALTGTIPANQQGDQPERIAMLWLSEISHHFRGDSYCYGGGYYRRGHAQHALVFTPENQKITETNLKTVDDSSIDYTLPLAGEFPVSSAVVLCFRTQIFVTRSDVVLVSGIHRGEPEIVGRYDSLGNSLGAEGHHHHHH | soluble |
| MSLTRQSLQQAAESRRSIYSLNKNLPVGKDEVVQIVEHAVLHTPSSFNSQSARVVVLFGEEHDKVWQFVEDALRAVVPADSFEPTAQKLNLFKAGAATILFYEDQNVVKGLQEQFPAYAANFPVWADQANAMVQYAVWTTLAAVGVGANLQHYNPLPDAAIAKAWNIPENWLLRAQMVIGGIEGAAGEKTFEPVAERLKVFGAEGGSHHHHHH | soluble |
| MSLSSKEYFSDTDSFENTPCPLCGSESSSLLYEINSYKYNKCNNCELVYLNPRLKEESLLEYYAQDSFYAEYSSGTGYEIQERALRSTFSRYMKELHKRNVTGGKLLEIGCGFGFLLDEAKNYFDYRIGTDFSSEAVSHAKKYADNVYCGGLEAIPSDTSTKFDCVITFSVLEHVYNPNTFIQEIQNYMAPNGSLVVSTPFIGGMWYKILGKKWSFFIPPEHVCLYNHNSISQLLKQNGFKNIEMFISSHAWPVAGFLSKMGMRKLSSMTLKLKIGDVPLFVPFTIINIIGSKEGHHHHHH | soluble |
| MASASNKQLELWKQYADTKNPAIKEQLIIEYSNIVKYIAGRLSIYFGSNVEYDDLIGYGIFGLIDAIEKFDINKGVKFETYASLRIRGSIIDSIRELDWVPRSLRQKNKELEKVYAEIENELGRSASDKEVADKLGITVDELNKLLNEVNLSSMISLEEFLEQNYEIGVTTAPESRDEKPEGYIEMAELREILADAISKLPEKEKMVITLYYFGEVVK | soluble |
| MKVNDRVTVKTDGGPRRPGVVLAVEEFSEGTMYLVSLEDYPLGIWFFNEAGHQDGIFVEKAE | soluble |
| MAHHHHHHMPENDEHVVVQACSVRVALPASTQPCGVEDAVQHCLHAARAIVQINLVRGTPRVALQLLACRTDACGEQHTASQVLDESPRRLQYALLLRGFEQRGGPVNRLDHTSLACAMCVPNYFSPHHFGAAAVPFFRTYHVTEALAKRRYADAAVMMACLEVETVAEASTEVPPWLARALQLLCRGEDREGVWQAWWIHEVPAATQRRMVCAKSDLVWNVVASHRLQELVAATGGCRDVLLAAAPKPGDFVFQLEEAEDSGATSAALAPVALSAPVTAVYSQAQAARYSVHDIALPLVLDASSEFEGCESLAVIEAQLGFTHDRRRHLSLHPSQRPCQSHTSLPAVAQTNETVFRPLLVEATGYPRATRPWCRSFPEPSVGPAFDRPKAALESNATVFALATDWDLASQTAVARDYAAKSRGPRACVWPLSKRGRALTDRLPAGLMTVASADGSSLLGGASTTNYHGSRCLAIHCTLPARVSLANFVSELAAVEDLRDSQA | not soluble |
| MGLFDFFKKKSSSEKTPIEDGDKTVVKSEDTDDSAPGWEAIDAEFDRLYPDQPNPLHYGTIVKYMFGGPDPLDGISVYDAGDFWHFVSYGLSELYTKESTDSEYSGYGIELTFKLKKSTNDEEEIKNGCGLLQYVARYIFKTGKVVLPEEYIYMKQTVGIDIQQKSKLTGFLTVSDNLAKPLDTPHGKVEFVTLIGATDAELRSVYESETSKLEVRKLLQELGNQITDYNRQSLVLEHHHHHH | not soluble |
| SLDAEKQLANITMGLPLSPAADSARSARHALSLIATARPPAFITTIAKEVHRHTALAANTQSQQSIHTTTLARAKGEILRVIEILIEKMPTDVVDLLVEVMDIIMYCLEGSLVKKKGLQECFPAICRFYMVSYYERSHRIAVGARHGSVALYDIRTGKCQTIHGHKGPITAVSFAPDGRYLATYSNTDSHISFWQMNTSLLGSIGMLNSAPQLRCIKTYQVPPVQPASPGSHNALKLARLIWTSNRNVILMAHDGKEHRFMV | soluble |
| MKQEETLTKVKVAEVTHSIFYAPLYVAESKGFFKEEGLDVDVNTTWGGDKTMTSLLSNGSDIALVGSETSIYVEAQGAKDPVINFAQLTQTDGTFLVAREDVEHFDWDQLKGKTFLGQRKGGMPQMVGEYVLNKHKIDPHKDIDLIQNIDFANIANAFASGTGEYVQLFEPQLLSLRKKASAISWLHSEKNQERFLIRLLWRNKAILEHHHHHH | not soluble |
| GTEDTVIKVSVLRGPSVIAFADWLENPPIIDNKKVQVKVVDSPDLAQALLIKQETDIAVLPMINAANLYNKGIKIKLAGCPIWGTLYLVEKTPLKEPALYVFGNGTTPDILTRYYLGRQRLDYPLNYAFNTAGEITQGILAGKVNRAVLGEPFLSIALRKDSSLRITADLNHLTDNDTLGFAQTAVVYTPTMEKYRIAFEDALRASCQKAVRYPKETIHSLEEHGIFAQGALTPKSIERCKIYYLSAIEAKDAVMGFLRLIEQYEPKAVGGRLPDAGFIPEKQ | soluble |
| MEAKAIARYVRISPRKVRLVVDLIRGKSLEEARNILRYTNKRGAYFVAKVLESAAANAVNNHDMLEDRLYVKAAYVDEGPALKRVLPRARGRADIIKKRTSHITVILGEKHGK | soluble |
| MTELARLKFYATQPHTCSYLPEEQATTLFLDPSQPMDVQVYADLSDMGFRRSGDHLYRPHCQNCSACVPARIPVNLFVPDRQQKRILKRNADIQVSSAKPVFTQEYFDLYQRYIEQRHADGDMFPPSREQFSTFLVRDLPFSRFYEFRVDQRLLAVAVTDLLPNGLSAVYTFYEPDEERRSLGRYAILWQIGEATRLQLQAVYLGYWIKNCKKMNYKTQYRPIELLTNQRWVTLYLEHHHHHH | not soluble |
| MKAKTLGELRRTYPLEKLRRTVKDEARENLREKLRRGERLFPGIHGYEDTVIPALVQAILAKQNFILLGTRGQAKSRILRSLTSLLDEEVPALATELRDNPLHPISPEGKRLLEEAGDDAPIVWLSREDRYVEKLATPDTTVADLLGDMDPIKAARRGTGMADLESIHYGLLPRANRGIFAVNELADLAPKVQVALFNILEEGDVQIRGYPLRLPLDVWLVFTANPQDYTARGRIVTPLKDRIGSEIRTHYPRSLEEGARISAQEAYVPEGVLVPEWVRLSVEAVAFVAREDRRVDQTAGVSQRLAISLLEVVAASAERRALLHGGRPVARPLDLYQGLPAITGKLELEYEGELQGAERVAREIVQRAFGLVLPRYRLRTEPIVAHFEEGNLLTLPEGDVEEALKAMAGVPGLLEAARALAEGEAPEVLLSAGEFVLEGLVGRRKLSRGEATYQAAERPRSYGN | soluble |
| ARVDQTPQTITKETGESLTINCVLRDSNCALSSTYWYRKKSGSTNEESISKGGRYVETVNSGSKSFSLRINDLTVEDSGTYRCKPESRYGSYDAECAALNDQYGGGTVVTVNAAAHHHHHH | soluble |
| MSLEAFIRSDQYNFIKSQAYILANGHATANDRGVIQALKSLAIEKIIHVFENLTDEQKELIDTVLTVQNREDAESFLMKIKPYVIPFQEVTAQTLKKLFPKAKKLKLPDMEEMDMKEISYLSWIDKGSSRKFIIAKNDKNKFVGLQGTFQSLNKKSICSLCHGHEEVGMFLVEIKGDIPGTFVKKGNYICKDGVACNQNMKSLDKLQDFIERLKKEGHHHHHH | soluble |
| MTEKKLLMGNEAIAFGAIEAGVQVVTGYPGTPSTEALETIARHAEKCGVYAEWSSNEKVALETAAGAAYSGAKALVTMKQVGLNVASDPLMSLTYIGVKGALVLLVADDPGPHSSQTEQDTRSFGHFANIPVLDPASPQEAYELTKLAFEISHQFEVPVILRTTTRVSHSSGDVELLNSEPSPVEAFC | not soluble |
